Tests used:
mouse IgG (Mus musculus) = assay: SELEX
[1] = system: rat IgG (Rattus norvegicus); assay: SELEX; details: uppercase RNA, lowercase DNA

## CGCCTCTCCGAGAGTGTAGGGCAUACAUTCTUGGAGAGGUG [T3-AGGGCAT]
Mouse IgG (Mus musculus); uppercase RNA, lowercase DNA, protein G beads 3
  binding signal: 18 reads
[1]; protein G beads 3
  binding signal: 106 reads

## CGAUAGGUGUUGAGGGGUAUCUCAGCGCUUGUUG [T1-GGGTAT]
Mouse IgG (Mus musculus); beads alone 37, p=0.039, 37 C
  binding signal: 787 reads

## CGAUAGGUGUUGAGUGGGCUCUCAGCGCUUGUUG [T1-TGGGCT]
Mouse IgG (Mus musculus); beads alone 78, p=0.014, before selection 201, p=0.123, 37 C
  binding signal: 605 reads

## CGAUAGGUGUUGAGUUGGUUCUCAGCGCUUGUUG [T1-TTGGTT]
Mouse IgG (Mus musculus); beads alone 23, p=0.048, 37 C
  binding signal: 713 reads

## CGAUAGGUGUUGAGGGCGAUCUCAGCGCUUGUUG [T1-GGCGAT]
Mouse IgG (Mus musculus); beads alone 155, p=0.037, 37 C
  binding signal: 691 reads

## CGAUAGGUGUUGAGGUGGGUCUCAGCGCUUGUUG [T1-GTGGGT]
Mouse IgG (Mus musculus); beads alone 136, p=0.024, 37 C
  binding signal: 730 reads

## CGCCTCTCCGAGAGTGTAUUAACCACAUTCTUGGAGAGGUG [T3-ATTAACC]
Mouse IgG (Mus musculus); uppercase RNA, lowercase DNA, protein G beads 78, 150 mM NaCl, 10 mM MgCl2
  binding signal: 3120 reads
[1]; below protein G bead background of 78
  binding signal: 25 reads

## CGAUAGGUGUUGAGGUGGAUCUCAGCGCUUGUUG [T1-GTGGAT]
Mouse IgG (Mus musculus); beads alone 24, p=0.014, 37 C, library assigned to SEQ 2 from six-base random region
  binding signal: 1560 reads

## CGAUAGGUGUUGAGGUUGGUCUCAGCGCUUGUUG [T1-GTTGGT]
Mouse IgG (Mus musculus); beads alone 25, p=0.035, 37 C
  binding signal: 605 reads

## CGAUAGGUGUUGAGUUCGAUCUCAGCGCUUGUUG [T1-TTCGAT]
Mouse IgG (Mus musculus); beads alone 44, p=0.019, 37 C
  binding signal: 548 reads
